# Reference: patent US20260069689A1 (Regeneron, published 2026)
# Read-outs that look alike come from different tables or passages of the source.
# B1: mAb14257 (antibody)
# heavy: not shown
# light: QSVLTQPPSVSGAPGQRVTISCTGTSSNIGADFDVHWYQQFPGTAPKLLIYGHTNRPSGIPDRFSGSKSGTSASLAITGLQAEDEADYYCQSYDSSLSGSVVFGGGTKLTVLGQPKAAPSVTLFPPSSEELQANKATLVCLISDFYPGAVTVAWKADSSPVKAGVETTTPSKQSNNKYAASSYLSLTPEQWKSHRSYSCQVTHEGSTVEKTVAPTECS
# B2: mAb14315 (antibody)
# heavy: not shown
# light: EIVLTQSPGTLSLSPGERATLSCRASQSVSSNYLAWYQQKPGQAPRLLIYGASSRATGIPERFSGSGSGTDFTLTISRLEPEDFAVYYCQQYGSSLYTFGQGTKLEIKRTVAAPSVFIFPPSDEQLKSGTASVVCLLNNFYPREAKVQWKVDNALQSGNSQESVTEQDSKDSTYSLSSTLTLSKADYEKHKVYACEVTHQGLSSPVTKSFNRGEC
# B3: mAb14256 (antibody)
# heavy: not shown
# light: QSVLTQPPSVSGAPGQRVTISCTGSSSNIGTHYDVHWYQQLPGTAPKLLIYGNSNRPSGVPDRFSGSKSGTSASLAITGLQAEDEADYYCQSFDNSLTAPYVFGTGTKVTVLGQPKAAPSVTLFPPSSEELQANKATLVCLISDFYPGAVTVAWKADSSPVKAGVETTTPSKQSNNKYAASSYLSLTPEQWKSHRSYSCQVTHEGSTVEKTVAPTECS
# B4: mAb14255 (antibody)
# heavy: not shown
# light: QSALTQPASVSGSPGQSITISCTGTSSDVGSYNLVSWYQQHPGKAPKLMIYEDSKRPSGVANPFSGSKSGNTASLTISGLQAEDEADYYCSSYAGSSTWVFGGGTKLTVLGQPKAAPSVTLFPPSSEELQANKATLVCLISDFYPGAVTVAWKADSSPVKAGVETTTPSKQSNNKYAASSYLSLTPEQWKSHRSYSCQVTHEGSTVEKTVAPTECS
# How the values were obtained:
# [1] = biological target: T1, human FcγR3a 176Val allotype receptor (human, UniProt P08637 17-254); experiment: cell-based or functional assay
# SARS-COV-2 RBD-MMH [2] = biological target: SARS-COV-2 RBD-MMH (SARS-CoV-2); experiment: SPR 37C, run with dissociation at pH 5.0
# SARS-COV-2 RBD-MMH [3] = biological target: SARS-COV-2 RBD-MMH (SARS-CoV-2); experiment: SPR 37C, run with dissociation at pH 7.4
# SARS-COV-2 RBD-MMH [4] = biological target: SARS-COV-2 RBD-MMH (SARS-CoV-2); experiment: SPR 37C
# [5] = biological target: T1, human FcγR3a 176Val allotype receptor; experiment: cell-based or functional assay; remark: listed apart in the source
Binder,"EC50 (M), Jurkat/CD20/spike [1] [M]","Fold induction, Jurkat CD20 [1] [fold]","Fold induction, Jurkat/CD20/spike [1] [fold]",RBD.mmh Bound at pH 7.4 (RU) (SARS-COV-2 RBD-MMH [2]),koff (SARS-COV-2 RBD-MMH [2]) [s⁻¹],t½ (SARS-COV-2 RBD-MMH [2]) [min],RBD.mmh Bound at pH 7.4 (RU) (SARS-COV-2 RBD-MMH [3]),koff (SARS-COV-2 RBD-MMH [3]) [s⁻¹],t½ Ratio of pH 7.4 to pH 5.0 (SARS-COV-2 RBD-MMH [4]),"EC50 (M), Jurkat/CD20/spike [5] [M]","Fold induction, Jurkat CD20 [5] [fold]","Fold induction, Jurkat/CD20/spike [5] [fold]"
B1,2.63e-10,1.2,2.2,45.2,0.0172,0.7,82.3,0.00778,2.1,2.39e-10,1,8.8
B2,,,,101,0.0007,16.5,83.3,0.00098,0.7,6.24e-11,1.1,9.3
B3,5.75e-10,1.1,2,54.1,0.00927,1.2,80.2,0.0111,0.8,4.48e-10,1,6.1
B4,1.88e-10,1.1,3.2,94.1,0.00635,1.8,97.5,0.00493,1.3,1.67e-10,1,9.5
